Here are results for 1 molecule from paper PMC7464098, “Conformational Equilibrium of NADPH–Cytochrome P450 Oxidoreductase Is Essential for Heme Oxygenase Reaction” (Antioxidants, 2020).

Holding throughout (details): both partners purified
In assay [1] the target is T1, rat CPR mutant lacking Thr236 to Glu239 of the hinge (open-form stabilized CPR) (rat, UniProt P00388 58-678, ΔTGEE (from Thr236 to Glu239 removed)).
T1 construct: rat NADPH–cytochrome P450 reductase, soluble form without the membrane-spanning region (Met1-Ile57), four consecutive hinge residues Thr236 to Glu239 removed; Holds FAD and FMN; also called ΔTGEE; source: E. coli, purified
T1 sequence (looked up): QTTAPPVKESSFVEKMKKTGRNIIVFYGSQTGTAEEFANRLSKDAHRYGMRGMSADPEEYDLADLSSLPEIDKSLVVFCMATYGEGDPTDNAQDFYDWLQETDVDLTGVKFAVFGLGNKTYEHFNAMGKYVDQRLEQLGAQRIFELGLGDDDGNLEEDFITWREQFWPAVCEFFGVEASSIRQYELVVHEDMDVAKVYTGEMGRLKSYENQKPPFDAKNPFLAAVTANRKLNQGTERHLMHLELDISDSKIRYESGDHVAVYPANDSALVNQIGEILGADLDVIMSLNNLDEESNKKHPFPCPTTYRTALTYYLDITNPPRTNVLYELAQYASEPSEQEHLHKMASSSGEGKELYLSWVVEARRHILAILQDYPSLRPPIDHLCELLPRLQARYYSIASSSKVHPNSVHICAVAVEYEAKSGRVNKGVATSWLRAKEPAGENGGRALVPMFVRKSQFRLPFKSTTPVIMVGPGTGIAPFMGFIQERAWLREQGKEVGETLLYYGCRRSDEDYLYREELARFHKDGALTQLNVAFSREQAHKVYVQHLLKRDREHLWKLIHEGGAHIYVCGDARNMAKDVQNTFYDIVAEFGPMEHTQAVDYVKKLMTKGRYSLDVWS
Briefly: AUC; sedimentation equilibrium, 5 μM heme–rHO-1 plus 5 μM CPR sample, 25 °C, 0.1 M potassium phosphate pH 7.4, 15,000 rpm, absorbance at 455 nm; fit to HO-1 + CPR ⇄ HO-1•CPR.

Assay [2] addresses T2, rat NADPH–cytochrome P450 oxidoreductase (soluble form) (rat, UniProt P00388 58-678).
T2 construct: Holds FAD and FMN; The limit Met1-Ile57 is printed in the sentence on the 147CC514 cDNA; also called rCPR; CPR; source: E. coli, purified
T2 sequence (looked up): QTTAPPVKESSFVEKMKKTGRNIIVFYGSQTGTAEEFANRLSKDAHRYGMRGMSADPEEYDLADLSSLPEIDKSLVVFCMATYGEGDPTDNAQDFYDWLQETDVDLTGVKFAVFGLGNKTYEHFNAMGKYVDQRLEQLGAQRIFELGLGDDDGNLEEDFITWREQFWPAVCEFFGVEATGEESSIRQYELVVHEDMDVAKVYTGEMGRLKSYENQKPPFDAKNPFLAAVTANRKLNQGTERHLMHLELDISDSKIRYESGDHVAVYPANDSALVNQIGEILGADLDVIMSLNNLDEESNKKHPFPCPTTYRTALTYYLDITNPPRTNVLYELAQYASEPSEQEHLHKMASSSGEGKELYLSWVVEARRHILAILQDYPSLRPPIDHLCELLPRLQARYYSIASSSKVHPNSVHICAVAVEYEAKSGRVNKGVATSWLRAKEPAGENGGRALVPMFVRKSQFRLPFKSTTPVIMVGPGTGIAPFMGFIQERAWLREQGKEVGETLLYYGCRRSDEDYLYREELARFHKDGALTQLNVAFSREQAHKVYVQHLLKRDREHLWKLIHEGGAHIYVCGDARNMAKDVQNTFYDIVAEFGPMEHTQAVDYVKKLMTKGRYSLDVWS
Description: AUC; sedimentation equilibrium, equimolar mixtures (15 μM each for 147CC514; concentrations for rCPR and IAM/DTT-treated 147CC514 not told), 25 °C, 0.1 M potassium phosphate pH 7.4, 15,000 rpm, absorbance at 455 nm; apparent affinity.

For assay [3], the target named is IAM/DTT-treated 147CC514 (rat, UniProt P00388 58-678, Asp147 substituted with cysteine | Arg514 substituted with cysteine | Cys136Ala …, disulfide bond between Cys147 and Cys514 cleaved, both cysteine residues alkylated (2-iodoacetamide)). The assay is described as above.
Assay [4] deals with rat CPR mutant with a disulfide bridge Cys147–Cys514 (closed-form stabilized CPR) (rat, UniProt P00388 58-678, Asp147 substituted with cysteine | Arg514 substituted with cysteine | Cys136Ala …, disulfide bond between Cys147 and Cys514). The assay is described as above.

B1: heme–rat heme oxygenase-1 complex (soluble form) (enzyme)
chain: MERPQLDSMSQDLSEALKEATKEVHIRAENSEFMRNFQKGQVSREGFKLVMASLYHIYTALEEEIERNKQNPVYAPLYFPEELHRRAALEQDMAFWYGPHWQEAIPYTPATQHYVKRLHEVGGTHPELLVAHAYTRYLGDLSGGQVLKKIAQKAMALPSSGEGLAFFTFPSIDNPTKFKQLYRARMNTLEMTPEVKHRVTEEAKTAFLLNIELFEELQALLTEEHKDQSPSQTEFLRQRPASLVQDTTSAETPRGKSQISTSSSQTP
notes: rat heme oxygenase-1 (HO-1), soluble form made by removing the membrane-spanning region; also called heme–rHO-1; heme–HO-1; source: E. coli, purified; reconstituted with 1.2 equiv. of heme, hydroxyapatite column
B1: the Kd worked out at 0.178 ± 0.077 µM in assay [1], 62.1 ± 1.7 µM in assay [2], 65.5 ± 17 µM in assay [3] and 111 ± 5 µM in assay [4].
